Biological target: native human uromodulin (UMOD), full-length, filaments (human) (UniProt P07911)
Assay: cryo-EM structure; purified native UMOD filaments and His-tagged FimHL A27V mixed at a molar ratio of 1:3, 30 min, dialysed against 10 mM Na-HEPES pH 7.0; single-particle cryo-EM, 7.4 Å; FimHL docked into the difference map

**Q.** Which stoichiometry N does the source give for “His-tagged FimHL A27V from UPEC strain UTI89 (from UniProt Q1R2J4 22-179) (domain or fragment)” here?
**A.** 1

Reference: paper PMC8930769
